Measured values as given in US20240301059A1 (PIONYR IMMUNOTHERAPEUTICS, published 2024).

T1: mouse TREM2 on Expi 293 cells (mouse, UniProt Q99NH8 19-227)
T1 construct: also called Expi-mTREM2; mTREM2
T1 sequence: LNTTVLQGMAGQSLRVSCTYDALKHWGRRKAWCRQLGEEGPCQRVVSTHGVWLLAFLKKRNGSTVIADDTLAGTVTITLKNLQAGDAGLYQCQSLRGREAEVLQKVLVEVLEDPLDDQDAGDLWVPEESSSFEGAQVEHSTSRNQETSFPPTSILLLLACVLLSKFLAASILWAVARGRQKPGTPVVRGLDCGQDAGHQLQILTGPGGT

T2: human TREM2 on Expi 293 cells (human, UniProt Q9NZC2 19-230)
T2 construct: also called Expi-hTREM2; hTREM2
T2 sequence: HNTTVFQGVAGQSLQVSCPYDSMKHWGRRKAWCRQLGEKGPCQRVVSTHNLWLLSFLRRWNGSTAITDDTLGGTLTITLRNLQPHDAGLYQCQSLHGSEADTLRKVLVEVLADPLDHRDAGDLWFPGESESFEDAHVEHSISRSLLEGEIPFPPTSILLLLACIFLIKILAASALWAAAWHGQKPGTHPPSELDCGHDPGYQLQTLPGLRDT

T3: TREM2 human IgG1 Fc fusion protein (human, UniProt Q9NZC2 19-174, limits assumed)
T3 construct: In-house, SEC purified to >95% purity; also called human TREM2-Fc; not shown: human IgG1 Fc
T3 sequence: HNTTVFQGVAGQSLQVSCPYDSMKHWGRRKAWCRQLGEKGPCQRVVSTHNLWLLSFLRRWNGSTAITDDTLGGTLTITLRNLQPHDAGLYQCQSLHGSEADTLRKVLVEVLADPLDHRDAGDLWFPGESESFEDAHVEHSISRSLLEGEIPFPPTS

T4: human TREM2 His (Sino Biological) (human, UniProt Q9NZC2 19-174)
T4 construct: Bought reagent; the soluble reagent is probably only the extracellular part; not shown: His tag
T4 sequence: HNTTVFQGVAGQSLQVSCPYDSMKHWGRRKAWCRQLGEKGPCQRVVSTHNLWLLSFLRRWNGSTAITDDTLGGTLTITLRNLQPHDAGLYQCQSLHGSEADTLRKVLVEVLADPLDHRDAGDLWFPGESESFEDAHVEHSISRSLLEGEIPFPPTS


Experiments:
[1] = biological target: T1, mouse TREM2 on Expi 293 cells; experiment: flow cytometry on Expi 293 cells over-expressing mouse TREM2; Alexa Fluor 647 anti-Fc secondary
Experimental: (§1) 100,000 to 500,000 Expi 293 parental cells or Expi 293 cells over-expressing human or mouse TREM2 were plated in 96 well plates and dead cells were stained with Zombie Near Infrared (Biolegend). Titrations of indicated unconjugated antibodies were incubated with these cells within a range of 0 ug/ml to 10 ug/ml in a 1:3 dilution range across 8-10 points. Dependent on their isotype (hIgG1 or mIgG2a), these primary unconjugated antibodies were detected with Alexa Fluor 647 conjugated anti-human Fc or anti-mouse Fc secondary antibodies (Jackson Immunoresearch). Alexa Fluor 647 signal was measured by flow cytometry (BD Fortessa X-14, BD Biosciences). EC50 values were calculated by curve fitting signal generated from antibodies binding to over-expressing cells over background fluorescence generated from HEK293 parental cells in Graphpad Prism (Graphpad Software).

[2] = biological target: T2, human TREM2 on Expi 293 cells; experiment: flow cytometry on Expi 293 cells over-expressing human TREM2; Alexa Fluor 647 anti-Fc secondary
Experimental: as §1

[3] = biological target: T3, TREM2 human IgG1 Fc fusion protein; experiment: SPR, Biacore T200; TREM2-Fc amine-coupled to CM5 chip, antibody injected; 1:1 Langmuir fit
Experimental: (§2) Binding kinetics were determined by surface plasmon resonance using a Biacore T200 (GE Healthcare, UK) with human TREM2 His (Sino Biological, Beijing, P.R.China) or […] captured on Series S CM5 chips through anti-His capture or TREM2 human IgG1 Fc fusion protein (in-house SEC purified to >95% purity) directly immobilized to chips by amine coupling. Serial dilutions of indicated antibodies were injected at 30 ul/minute for 2 minutes. PBS or system buffer was then injected at 30 ul/minute for 400 seconds to observe dissociation. Binding responses were corrected by subtraction of responses on a blank flow cell. For kinetic analysis, a 1:1 Langmuir model of global fittings of kₒₙ and koff values, was used. The Kd values were determined from the ratios of kₒₙ and koff.

[4] = biological target: T4, human TREM2 His (Sino Biological); experiment: SPR, Biacore T200; TREM2-His captured on CM5 chip by anti-His, antibody injected; 1:1 Langmuir fit
Experimental: as §2

Row | EC50 [1] [nM] | EC50 [2] [nM] | Kd [3] [nM] | koff [3] [s⁻¹] | kon [3] [M⁻¹ s⁻¹] | Kd [4] [nM] | koff [4] [s⁻¹] | kon [4] [M⁻¹ s⁻¹] | Binder
1 | 0.5 |  |  |  |  |  |  |  | PI37012 (antibody, human IgG1, kappa, V domains shown, Humanized anti-TREM2 antibody, human IgG1, produced in HEK293; also called 37012 antibody; PI37012 anti-TREM2 mAb) VH: EVQLLESGGGLVQPGGSLRLSCAASGFTFSNYYMAWVRQAPGKGLEWVSSLTNSGGSTYYADSVKGRFTISRDNSKNTLYLQMNSLRAEDTAVYYCTREWAGSGYFDYWGQGTLVTVSS VL: DIQMTQSPSSLSASVGDRVTITCKASQNVGNNLAWYQQKPGKAPKLLIYYTSNRFTGVPSRFSGSGSGTDFTLTISSLQPEDFATYYCQRIYNSPWTFGQGTKLEIKR
2 | 3.6 | 23.3 | 18 | 0.00614 | 340000 |  |  |  | PI37017 (antibody, human IgG1, kappa, V domains shown, Parent humanized clone, human IgG1; also called 37017 antibody) VH: EVQLLESGGGLVQPGGSLRLSCAASGFTFSNYYMAWVRQAPGKGLEWVSSLTNSGGSTYYADSVKGRFTISRDNSKNTLYLQMNSLRAEDTAVYYCAKEWAGSGYFDYWGQGTLVTVSS VL: DIQMTQSPSSLSASVGDRVTITCKASQNVGNNLAWYQQKPGKAPKLLIYYTSNRFTGVPSRFSGSGSGTDFTLTISSLQPEDFATYYCQRIYNSPWTFGQGTKLEIKR
3 |  | 1.4 | 1.55 | 0.000732 | 471000 | 4.74 | 0.00243 | 511000 | PI37014 (antibody, human IgG1, kappa, V domains shown, Humanized anti-TREM2 antibody, human IgG1) VH: EVQLLESGGGLVQPGGSLRLSCAASGFTFSNYYMAWVRQAPGKGLEWVASLTNSGGSTYYADSVKGRFTLSRDNSKNTLYLQMNSLRAEDTAVYYCTREWAGSGYFDYWGQGTLVTVSS VL: DIQMTQSPSSLSASVGDRVTITCKASQNVGNNLAWYQQKPGKAPKLLIYYTSNRFTGVPSRFSGSGSGTDFTLTISSLQPEDFATYYCQRIYNSPWTFGQGTKLEIKR
4 | 1.2 | 1.4 | 1.72 | 0.000888 | 517000 | 4.82 | 0.00549 | 1.14e+06 | PI37013 (antibody, human IgG1, kappa, V domains shown, Humanized anti-TREM2 antibody, human IgG1) VH: EVQLLESGGGLVQPGGSLRLSCAASGFTFSNYYMAWVRQAPGKGLEWVSSLTNSGGSTYYADSVKGRFTISRDNSKNTLYLQMNSLRAEDTAVYYCTREWAGSGYFDYWGQGTLVTVSS VL: DIQMTQSPSSLSASVGDRVTMTCKASQNVGNNLAWYQQKPGKAPKLLLYYTSNRFTGVPSRFSGSGSGTDFTLTISSVQPEDFATYYCQRIYNSPWTFGQGTKLELKR
